From patent publication US20240342190A1, “METHODS FOR REDUCING ISCHEMIA-REPERFUSION INJURIES” (BioMimetix JV, LLC, priority 2023, published 2024)

Test: Experiment 8: interaction of BMX-001 with t-PA (blood clot dissolution)
Design: species or system rat
Settings: rat blood clots; 1 mg/ml t-PA with or without 50 μg/ml BMX-001; 37° C. for 30 minutes
Method: Fresh arterial blood samples were collected from young male rats and distributed into 21 pre-weighed centrifuge tubes. After sitting at 37° C. for 3 hours, the blood clots were formed. The supernatant was removed from these tubes and then the tubes with blood clots were weighed. The weight of the blood clot was calculated (=the tube with blood clot-pre-weighed tube). Then, 1 ml saline, t-PA (1 mg/ml) or t-PA (1 mg/ml) plus BMX-001 (50 μg/ml) were added (n=7 for each group) and tubes placed in 37° C. dry incubator for 3 hours. The liquids were then removed from the tubes. The tubes with remaining blood clots were weighed again. The percentage of blood clot dissolved by t-PA was calculated.

B1: tissue plasminogen activator (protein, UniProt P00750 36-562, looked up)
Tissue-type plasminogen …: SYQVICRDEKTQMIYQQHQSWLRPVLRSNRVEYCWCNSGRAQCHSVPVKSCSEPRCFNGGTCQQALYFSDFVCQCPEGFAGKCCEIDTRATCYEDQGISYRGTWSTAESGAECTNWNSSALAQKPYSGRRPDAIRLGLGNHNYCRNPDRDSKPWCYVFKAGKYSSEFCSTPACSEGNSDCYFGNGSAYRGTHSLTESGASCLPWNSMILIGKVYTAQNPSAQALGLGKHNYCRNPDGDAKPWCHVLKNRRLTWEYCDVPSCSTCGLRQYSQPQFRIKGGLFADIASHPWQAAIFAKHRRSPGERFLCGGILISSCWILSAAHCFQERFPPHHLTVILGRTYRVVPGEEEQKFEVEKYIVHKEFDDDTYDNDIALLQLKSDSSRCAQESSVVRTVCLPPADLQLPDWTECELSGYGKHEALSPFYSERLKEAHVRLYPSSRCTSQHLLNRTVTDNMLCAGDTRSGGPQANLHDACQGDSGGPLVCLNDGRMTLVGIISWGLGCGQKDVPGVYTKVTNYLDWIRDNMRP
notes: standard thrombolytic therapy
  Percentage of blood clot dissolved: 44.77±25.77%
